According to patent US20180155451A1 (published 2018):
Changes are numbered by the printed parent chain. In names and notes the source's numbering stands. Where two headings read alike, the source gives them in different places.

B1: GpH7-TA7/GpH7-B78/GpL16-k0 (antibody, human IgG1, kappa)
heavy 1: QVQLVQSGAEVKKPGASVTVSCKASGYTFTDYEMHWIRQPPGEGLEWIGAIDPKTGDTAYSESFQDRVTLTADKSTSTAYMELSSLTSEDTAVYYCTRFYSYTYWGQGTLVTVSSASTKGPSVFPLAPSSKSTSGGTAALGCLVKDYFPEPVTVSWNSGALTSGVHTFPAVLQSSGLYSLSSVVTVPSSSLGTQTYICNVNHKPSNTKVDKKVEPKSCDKTHTCPPCPAPEYLWGPSVFLFPPKPKDTLMISRTPEVTCVVVDVSHEDPEVKFNWYVDGVEVHNAKTKPREEQYNATYRVVSVLTVLHQDWLNGKEYKCKVSNKALPAPIEKTISKAKGQPREPQVYTLPPSRKELTKNQVSLTCLVKGFYPSDIAVEWESNGQPENNYKTTPPVLDSDGSFFLYSKLTVDKSRWQQGNVFSCSVMHEALHNRYTQKSLSLSP
heavy 2: B1 heavy 1 with Y232L, W234G, S237D, A296S, A328L, I330E, K354D, R433H, K437E
light: DIVMTQSPLSLPVTPGEPASISCQASESLVHSNRNTYLHWYLQKPGQSPQLLIYKVSNRFSGVPDRFSGSGSGTDFTLKISRVEAEDVGVYYCSQNTHVPPTFGQGTKVEIERTVAAPSVFIFPPSDEQLKSGTASVVCLLNNFYPREAKVQWKVDNALQSGNSQESVTEQDSKDSTYSLSSTLTLSKADYEKHKVYACEVTHQGLSSPVTKSFNRGEC
notes: Heterodimerized anti-glypican-3 IgG1 variant: L234Y/G236W/S298A in one H chain, S239D/A330L/I332E in the other
B2: GpH7-TA7/GpH7-TA50/GpL16-k0 (antibody, human IgG1, kappa)
heavy 1: B1 heavy 1
heavy 2: B1 heavy 1 with Y232L, W234G, S237D, A296S, A328L, I330E, K332G, K354D, R433H, K437E
light: B1 light
notes: Heterodimerized anti-glypican-3 IgG1 antibody; also called TA7/TA50
B3: GpH7-TA22/GpH7-B78/GpL16-k0 (antibody, human IgG1, kappa)
heavy 1: B1 heavy 1 with S237D
heavy 2: B1 heavy 1 with Y232L, W234G, S237D, A296S, A328L, I330E, K354D, R433H, K437E
light: B1 light
notes: Heterodimerized anti-glypican-3 IgG1 variant
B4: GpH7-TA40/GpH7-B78/GpL16-k0 (antibody, human IgG1, kappa)
heavy 1: B1 heavy 1 with K332G
heavy 2: B1 heavy 1 with Y232L, W234G, S237D, A296S, A328L, I330E, K354D, R433H, K437E
light: B1 light
notes: Heterodimerized anti-glypican-3 IgG1 antibody; K334G is in the same H chain as L234Y/G236W/S298A; also called TA40/B78

Assays:
[1] = molecular target: T1, FcγRIIIa extracellular domain with C-terminal His tag (human, UniProt P08637 17-208); experiment: SPR (Biacore), ratio of KD values for FcγRIIIa
T1 construct: extracellular domain; also called FcgRIIIa; CD16A
Method: (§1) Analysis of interaction between objective antibody and the FcγR was carried out using Biacore T100 (GE Healthcare). HBS-EP+ (GE Healthcare) was used as the running buffer, and the measurement temperature was set to 25° C. Chips produced by immobilizing the antigen peptide by the amine coupling method to a Series S Sencor Chip CM5 (GE Healthcare), or alternatively, chips produced by allowing preliminarily biotinylated antigen peptides to interact with and immobilize onto a Series S Sensor Chip SA (certified) (GE Healthcare) were used. Antibodies of interest were captured onto an antigen peptide-immobilized chip, and allowed to interact to each FcγR diluted with running buffer. To regenerate and repeatedly use the chip, the antibodies captured on the chip were washed off by reacting 10 mM glycine-HCl, pH 1.5.

[2] = molecular target: T1, FcγRIIIa extracellular domain with …; experiment: SPR (Biacore), antibody captured, FcγRIIIa as analyte, 1:1 Langmuir kinetic fit
From the text: (§2) First, it was considered which H chain should be introduced with Y296W. GpH7-TA52 (SEQ ID NO: 44) resulting from the introduction of the mutation Y296W into GpH7-TA7 was constructed, and expressed and prepared in combination with GpH7-B78 according to the method described in Reference Example 1. Furthermore, GpH7-TA58 (SEQ ID NO: 45) resulting from the introduction of Y296W into GpH7-B78 was constructed, and expressed and prepared in combination with GpH7-TA22 according to the method described in Reference Example 1. To assess the effects of combinations with Y296W, the prepared antibodies were compared for the FcγRIIIa-binding activity according to the method described in Reference Example 2 (Table 16).
as §1
(§3) The FcγR-binding activity of each antibody was assessed primarily using as an indicator the FcγR-binding activity and dissociation constant for FcγR.

[3] = molecular target: T1, FcγRIIIa extracellular domain with …; experiment: as above; remark: listed apart in the source
Outline: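 Biacore T100 at 25° C in HBS-EP+; antibodies captured on antigen-peptide chips (amine-coupled CM5 or biotinylated peptide on SA), with FcγR in running buffer flowed over.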

[4] = molecular target: T1, FcγRIIIa extracellular domain with …; experiment: SPR (Biacore), ratio of KD values for FcγRIIIa; remark: listed apart in the source
From the text: as §2, §1

[5] = molecular target: T1, FcγRIIIa extracellular domain with …; experiment: SPR (Biacore), antibody captured, FcγRIIIa as analyte, 1:1 Langmuir kinetic fit; remark: listed apart in the source
Method: as §1, §3

[6] = molecular target: T1, FcγRIIIa extracellular domain with …; experiment: SPR (Biacore), ratio of KD values for FcγRIIIa; remark: listed apart in the source
FcγRIIIa [7] = molecular target: T2, FcγRIIIa (human, UniProt P08637 17-208); experiment: SPR (Biacore); KD of GpH7-TA7/GpH7-B78/GpL16-k0 for FcγRIIIa divided by the KD of this antibody
T2 construct: extracellular domain; The protein is soluble, His-tagged, and was expressed in FreeStyle293 cells; also called FcgRIIIa; CD16A; not shown: His tag attached to the C terminus
Method: (§4) Then, K334G was also assessed in the same manner. GpH7-TA40 (SEQ ID NO: 47) resulting from the introduction of K334G into GpH7-TA7 was constructed, and expressed and prepared in combination with GpH7-B78 according to the method described in Reference Example 1. Furthermore, GpH7-TA50 (SEQ ID NO: 48) resulting from the introduction of K334G into GpH7-B78 was constructed, and expressed and prepared in combination with GpH7-TA7 according to the method described in Reference Example 1. To assess the effect of combinations with K334G, the prepared antibodies were compared for the FcγRIIIa binding according to the method described in Reference Example 2 (Table 18).
as §1, with “To regenerate and repeatedly use the chip, the antibodies captured on the chip were washed off by reacting 10 mM glycine-HCl, pH 1.5.” left out

FcγRIIIa [8] = molecular target: T2, FcγRIIIa; experiment: SPR (Biacore T100); antibody captured on an antigen peptide chip, FcγRIIIa as analyte; 1:1 Langmuir kinetic fit
Method: as §4, §1

[9] = molecular target: T1, FcγRIIIa extracellular domain with …; experiment: SPR (Biacore), ratio of KD values for FcγRIIIa; remark: listed apart in the source
From the text: (§5) Then, GpH7-TA54 (SEQ ID NO: 46) resulting from the introduction of Y296W into GpH7-TA22 was constructed, and expressed and prepared in combination with GpH7-B78 according to the method described in Reference Example 1. Furthermore, GpH7-TA58 (SEQ ID NO: 45) resulting from the introduction of Y296W into GpH7-B78 was constructed, and expressed and prepared in combination with GpH7-TA22 according to the method described in Reference Example 1. To assess the effect of combination with Y296W, the prepared antibodies were compared for the FcγRIIIa-binding activity according to the method described in Reference Example 2 (Table 17).
as §1

[10] = molecular target: T1, FcγRIIIa extracellular domain with …; experiment: SPR (Biacore), antibody captured, FcγRIIIa as analyte, 1:1 Langmuir kinetic fit; remark: listed apart in the source
From the text: as §5, §1, §3

T2 sequence (P08637 17-208): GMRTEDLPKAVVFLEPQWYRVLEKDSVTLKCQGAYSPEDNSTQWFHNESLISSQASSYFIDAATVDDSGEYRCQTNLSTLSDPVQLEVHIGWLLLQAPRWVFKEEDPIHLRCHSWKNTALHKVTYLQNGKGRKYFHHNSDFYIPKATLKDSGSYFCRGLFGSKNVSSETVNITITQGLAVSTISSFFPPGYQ
T1 sequence (P08637 17-208): as above

Binder	KD ratio (KD of GpH7-TA7/GpH7-B78/GpL16-k0 divided by KD of the antibody) [1] [fold]	Kd [5] [nM]	KD ratio (FcγRIIIa [7])	Kd (FcγRIIIa [8]) [nM]	other results
B1	1	4.1			Kd [2]: 4.1 nM; Kd [3]: 4.7 nM; KD ratio (KD of GpH7-TA7/GpH7-B78/GpL16-k0 divided by KD of the antibody) [4]: 1 fold; KD ratio 1 (KD of GpH7-G1d/GpL16-k0 divided by KD of the antibody) [6]: 261 fold; KD ratio 2 (KD of GpH7-A5/GpH7-B3/GpL16-k0 divided by KD of the antibody) [6]: 347 fold
B2			1.2	3.4	
B3	3.2	1.3			KD ratio (KD of GpH7-TA22/GpH7-B78/GpL16-k0 divided by KD of the antibody) [9]: 1 fold; Kd [10]: 1.3 nM
B4			0.5	7.5	
